These results are taken from patent US20250296959A1, “B7-H3 TARGETING PEPTIDES AND CONSTRUCTS THEREOF” (Mariana Oncology Inc., priority 2024, published 2025).

Starred links: 1 amine or outer side, 2 acyl side, 3 side chain; linkers in the order of their positions; H or OH if unused. Positions of bridges follow the written chain, without caps; N, C: chain ends. Non-standard residues stand in square brackets, D forms with d. Residues, ends and D or L forms follow the SMILES beside them. Groups on a side chain read outwards from the residue. Primed or numbered codes have the meaning given here. *: point of attachment. R‑DOTAGA = O=C(O)CN1CCN(CC(=O)O)CCN([C@H](CCC(=O)*)C(=O)O)CCN(CC(=O)O)CC1; X4 = O=C(O)CN1CCN(CC(=O)O)CCN([C@H](CCC(=O)*)C(=O)O)CCN(CC(=O)O)CC1; Ala(piperidin-4-yl) = O=C([C@H](CC1CCN([*:3])CC1)N[*:1])[*:2]; (2S,3S)βMePhe = C[C@@H](c1ccccc1)[C@H](N[*:1])C(=O)[*:2]; DOTA = O=C(O)CN1CCN(CC(=O)O)CCN(CC(=O)*)CCN(CC(=O)O)CC1; PipAla = piperidinyl-alanine residue (as named); Trp(5-F) = N[C@@H](Cc1c[nH]c2ccc(F)cc12)C(=O)O; hydroxyVal = hydroxy-valine residue (as named); PEG4′ = 4x 3-(2-aminoethoxy)propanoic acid; hCba = O=C([C@H](CCC1CCC1)N[*:1])[*:2]; γGlu = O=C(O)[C@H](CCC(=O)[*:2])N[*:1]; 1Nal = N[C@@H](Cc1cccc2ccccc12)C(=O)O; Ala(4-THP) = N[C@@H](CC1CCOCC1)C(=O)O; Pip(CH2CO2H)Ala = not defined here; Val(3-OH) = CC(C)(O)[C@H](N)C(=O)O; hCha = N[C@@H](CCC1CCCCC1)C(=O)O; Tle = CC(C)(C)[C@H](N)C(=O)O; hLeu = CC(C)CC[C@H](N)C(=O)O; Dab = NCC[C@H](N)C(=O)O; Ms = CS(=O)(=O)*; Sar = CNCC(=O)O

A word on the Kd: it is a measure of binding affinity in units of concentration.

In experiment [1] the test system is Calu-6 cell line. Put plainly: Cell associated (bound) fraction of [177Lu]Lu-labeled peptide in Calu-6 cells. The settings on record: 1 hour, 37° C. In kind it is cell-based, Human. In a few lines:
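Peptide conjugate was labelled with [177Lu]LuCl3 in ammonium acetate pH ~5 at 80 °C for 17-20 min, with purity checked by RP-HPLC. Calu-6 suspensions (5 million cells/mL in 1% PBSA) were incubated with 0.8 μCi for 1 h at 37 °C. Cell pellets were gamma-counted after two cold PBS/BSA washes, giving the bound fraction against the unbound supernatant plus washes.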

The target of another experiment is T1, human 4lg B7-H3 (Homo sapiens, UniProt Q5ZPR3).
T1 sequence (Q5ZPR3 29-534): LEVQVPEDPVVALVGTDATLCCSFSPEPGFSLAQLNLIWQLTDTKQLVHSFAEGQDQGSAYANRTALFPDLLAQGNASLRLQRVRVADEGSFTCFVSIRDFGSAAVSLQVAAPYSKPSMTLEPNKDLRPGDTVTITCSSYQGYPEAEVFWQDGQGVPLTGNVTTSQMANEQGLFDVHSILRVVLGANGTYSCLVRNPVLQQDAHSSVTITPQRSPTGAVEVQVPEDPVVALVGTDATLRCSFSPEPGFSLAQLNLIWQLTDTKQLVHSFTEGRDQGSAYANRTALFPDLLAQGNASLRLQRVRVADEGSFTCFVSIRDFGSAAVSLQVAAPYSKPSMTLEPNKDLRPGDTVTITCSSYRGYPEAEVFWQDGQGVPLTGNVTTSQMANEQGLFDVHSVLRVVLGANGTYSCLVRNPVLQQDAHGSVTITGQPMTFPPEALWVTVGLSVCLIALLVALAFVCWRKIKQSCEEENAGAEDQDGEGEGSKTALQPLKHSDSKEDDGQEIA
Put plainly: Affinity determination by surface plasmon resonance (SPR) to 4Ig B7-H3. The settings on record: read-out: SPR KD—37° C.; 4Ig B7-H3; 37° C. flow cell temperature.

The test system of experiment [2] is Calu-6 cell line. Description: Net internalization of [177Lu]Lu-labeled peptide in Calu-6 cells. In kind it is cell-based, Human. The settings on record: 1 hour, 37° C., glycine pH 2.5 acid wash. In a few lines: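 Peptide conjugate labeled with [177Lu]LuCl3 at pH ~5, 80 °C, 17–20 min, and purity checked by RP-HPLC. B7-H3-expressing human Calu-6 lung cancer cells at 5 million cells/mL in 1% PBSA. Internalized fraction: counts left after two 3 min 50 mM glycine pH 2.5 washes and NaOH lysis, gamma counted against bound fraction.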

For experiment [3], the target named is B7-H3 on Calu-6 cells (human) (UniProt Q5ZPR3). Description: 177Lu-labelled peptide on Calu-6 cells, % cell associated fraction; B = 25<%<=50.

`CC(=O)N[C@@H](CCC(C)C)C(=O)N[C@@H](Cc1ccc(O)cc1)C(=O)N[C@H]1CSSC[C@@H](C(=O)N[C@@H](Cc2c[nH]c3ccc(F)cc23)C(=O)N[C@@H](Cc2ccccc2)C(=O)N[C@H](C(=O)N[C@H](CCCCNC(=O)CC[C@H](C(=O)O)N2CCN(CC(=O)O)CCN(CC(=O)O)CCN(CC(=O)O)CC2)C(=O)O)C(C)(C)O)NC(=O)[C@H](Cc2ccc(O)cc2)NC(=O)[C@H](C(C)C)NC(=O)[C@H](CC(=O)O)NC(=O)[C@H](CC2CCOCC2)NC(=O)[C@H](CC2CCNCC2)NC(=O)CNC(=O)[C@H](C(C)(C)C)NC1=O` [compound 438, Ac-hLeu-Y-C-Tbg-G-PipAla-ThpA-D-V-Y-C-5FW-F-hydroxyVal-dLys(R-DOTAGA)-COOH] (Ac-[hLeu]YC[Tle]G[Ala(piperidin-4-yl)][Ala(4-THP)]DVYC[Trp(5-F)]F[Val(3-OH)][dK](X4)-OH; disulfide 3-11): the “% cell associated fraction” value with Calu-6 cell line [1] is listed as “B (25<%≤50)”. On human 4lg B7-H3, the Kd was less than 1 nM. Also, the “% net internalization” value in the experiment on Calu-6 cell line [2] is “A (%≤25)”.

Take Ac-[hLeu]YC[Tle]G[PipAla](CH2COOH)[PipAla]([PEG4′-DOTA])DVYC[Trp(5-F)][(2S,3S)βMePhe][Val(3-OH)][dE]-NH2 (disulfide 3-11 (inferred)) [Cpd 496]: the % cell associated fraction in experiment [3] lay in the range of 25 to 50%. As for Ac-[hLeu]YC[Tle]GK(DOTA)[Ala(4-THP)]DVYC[Trp(5-F)]F[Val(3-OH)]-NH2 (disulfide 3-11 (inferred)) [Cpd 338], the % cell associated fraction in experiment [3] was in the range of 25 to 50%.

B1: Cpd 318 (peptide)
peptide: Ac-[hLeu]YCIG[Pip(CH2CO2H)Ala][Ala(4-THP)]DVYC[Trp(5-F)]F[Val(3-OH)][dK](DOTA)-OH
modifications: disulfide 3-11 (inferred); reading uncertain; also: printed as Ac-hLeu-Y-C-Ile-G-[Pip(CH2CO2H)Ala]-ThpA-D-V-Y-C-5FW-F-hydroxyVal-dLys(DOTA)-COOH; disulfide
Molecule B1 showed a % cell associated fraction in experiment [3] of 25 to 50%. Same read-out and setting: as for Ac-[hCba]YC[Tle]GK[Ala(4-THP)]DVYC[Trp(5-F)]F[Val(3-OH)][dK](DOTA)-OH (disulfide 3-11 (inferred)) [Cpd 398], the figure is 25 to 50%.

B2: Cpd 429 (peptide)
peptide: Ac-[hLeu]YC[Tle]G[PipAla][Ala(4-THP)]DVYCXF[hydroxyVal][dK]([dE-DOTA])-OH
modifications: disulfide 3-11 (inferred); not fully specified (residue 12); printed as Ac-hLeu-Y-C-Tbg-G-PipAla-ThpA-D-V-Y-C-5FW-F-hydroxyVal-dLys(dGlu-DOTA)-COOH, disulfide
With B2, the % cell associated fraction in experiment [3] is 25 to 50%. Same read-out and setting: the result for Ac-[hLeu]YC[Tle]GK[Pip(PEG4-DOTA)Ala]DVYC[Trp(5-F)]F[Val(3-OH)][dE]-NH2 (disulfide 3-11 (inferred)) [Cpd 410] reads 25 to 50%.

B3: Cpd 437 (peptide)
peptide: Ms-[hLeu]YC[Tle]G[PipAla][Ala(4-THP)]DVYCXF[hydroxyVal][dK](DOTA)-OH
modifications: disulfide 3-11 (inferred); not fully specified (residue 12); printed as MeSO2-hLeu-Y-C-Tbg-G-PipAla-ThpA-D-V-Y-C-5FW-F-hydroxyVal-dLys(DOTA)-COOH, disulfide
As to B3, the % cell associated fraction in experiment [3] lay in the range of 25 to 50%.

B4: Cpd 438 (peptide)
peptide: Ac-[hLeu]YC[Tle]G[PipAla][Ala(4-THP)]DVYCXF[hydroxyVal][dK](R‑DOTAGA)-OH
modifications: disulfide 3-11 (inferred); not fully specified (residue 12); printed as Ac-hLeu-Y-C-Tbg-G-PipAla-ThpA-D-V-Y-C-5FW-F-hydroxyVal-dLys(R-DOTAGA)-COOH, disulfide
Regarding B4, the % cell associated fraction in experiment [3] lay within 25 to 50%. In turn, Ac-[hCha]YC[Tle]GK[Ala(4-THP)]DVYC[Trp(5-F)]F[Val(3-OH)][dK](DOTA)-OH (disulfide 3-11 (inferred)) [Cpd 368] came in with a % cell associated fraction in experiment [3] of 25 to 50%. Ac-[hLeu]YC[Tle]G[Pip(PEG4-DOTA)Ala][Ala(4-THP)]DVYC[Trp(5-F)]F[Val(3-OH)][dA]-NH2 (disulfide 3-11 (inferred)) [Cpd 384] came in with a % cell associated fraction in experiment [3] of 25 to 50%.

Turning to Ac-[hLeu]YC[Tle]G[Dab][Ala(4-THP)]DVYC[Trp(5-F)]F[Val(3-OH)][dK](DOTA)-OH (disulfide 3-11 (inferred)) [Cpd 371], the % cell associated fraction in experiment [3] lay in the range of 25 to 50%. With Ac-[hLeu]YC[Tle]GK[Pip(PEG4-DOTA)Ala]DVYC[Trp(5-F)]F[Val(3-OH)]-NH2 (disulfide 3-11 (inferred)) [Cpd 383], the % cell associated fraction in experiment [3] is 25 to 50%. In experiment [3], Ac-[hLeu]YC[Tle]G[PipAla][Ala(4-THP)]DVYC[1Nal]F[hydroxyVal][dK](DOTA)-OH (disulfide 3-11 (inferred)) [Cpd 436] displayed a % cell associated fraction of 25 to 50%. As to Ac-[hLeu]YC[Tle]G[PipAla][Ala(4-THP)]DVYC[Trp(5-F)]F[hydroxyVal][dK]([PEG4′-DOTA])-OH (disulfide 3-11 (inferred)) [Cpd 465], the % cell associated fraction in experiment [3] was 25 to 50%.

B5: Cpd 440 (peptide)
peptide: Ac-[hLeu]YC[Tle]G[PipAla][Ala(4-THP)]DVYCXF[hydroxyVal][dK]([γGlu-DOTA])-OH
modifications: disulfide 3-11 (inferred); not fully specified (residue 12); printed as Ac-hLeu-Y-C-Tbg-G-PipAla-ThpA-D-V-Y-C-5FW-F-hydroxyVal-dLys(gGlu-DOTA)-COOH, disulfide
In the case of B5, in experiment [3], the % cell associated fraction was 25 to 50%. In experiment [3], Ac-[hLeu]YC[Tle]GK[Ala(4-THP)]DVYC[Trp(5-F)]F[Val(3-OH)][dK](DOTA)-NH2 (disulfide 3-11 (inferred)) [Cpd 366] registered a % cell associated fraction of 25 to 50%. In turn, Ac-[hLeu]YC[Tle][Sar]K[Ala(4-THP)]DVYC[Trp(5-F)]F[Val(3-OH)][dK](DOTA)-OH (disulfide 3-11 (inferred)) [Cpd 348] had a % cell associated fraction in experiment [3] of 25 to 50%.

B6: Cpd 428 (peptide)
peptide: Ac-[hLeu]YC[Tle]G[PipAla][Ala(4-THP)]DVYCXF[hydroxyVal][dK]([Glu-DOTA])-OH
modifications: disulfide 3-11 (inferred); not fully specified (residue 12); printed as Ac-hLeu-Y-C-Tbg-G-PipAla-ThpA-D-V-Y-C-5FW-F-hydroxyVal-dLys(Glu-DOTA)-COOH, disulfide
In experiment [3], B6 had a % cell associated fraction of 25 to 50%.
